In patent publication US20090111753A1, “Nogo-A Polypeptide Fragments, Variant Nogo Receptor-1 Polypeptides, and Uses Thereof” (Yale University, priority 2004, published 2009):

B1: 133, 136: human NgR1 mutant, listed residues mutated to alanine (protein)
chain: CPGACVCYNEPKVTTSCPQQGLQAVPVGIPAASQRIFLHGNRISHVPAASFRACRNLTILWLHSNVLARIDAAAFTGLALLEQLDLSDNAQLRSVDPATFHGLGRLATLALDRCGLQELGPGLFRGLAALQYLYLQDNALQALPDDTFRDLGNLTHLFLHGNRISSVPERAFRGLHSLDRLLLHQNRVAHVHPHAFRDLGRLMTLYLFANNLSALPTEALAPLRALQYLRLNDNPWVCDCRARPLWAWLQKFRGSSSEVPCSLPQRLAGRDLKRLAANDLQGCAVATGPYHPIWTGRATDEEPLGLPKCCQPDAADKASVLEPGRPASAGNALKGRVPPGDSPPGNGSGPRHINDSPFGTLPGSAEPPLTAVRPEGSEPPGFPTSGPRRRPGCSRKNRTRSHCRLGQAGSGGGGTGDSEGSGALPSLTCSLTPLGLALVLWTVLGPC
B2: 158, 160: human NgR1 mutant, listed residues mutated to alanine (protein)
chain: CPGACVCYNEPKVTTSCPQQGLQAVPVGIPAASQRIFLHGNRISHVPAASFRACRNLTILWLHSNVLARIDAAAFTGLALLEQLDLSDNAQLRSVDPATFHGLGRLHTLHLDRCGLQELGPGLFRGLAALQALALQDNALQALPDDTFRDLGNLTHLFLHGNRISSVPERAFRGLHSLDRLLLHQNRVAHVHPHAFRDLGRLMTLYLFANNLSALPTEALAPLRALQYLRLNDNPWVCDCRARPLWAWLQKFRGSSSEVPCSLPQRLAGRDLKRLAANDLQGCAVATGPYHPIWTGRATDEEPLGLPKCCQPDAADKASVLEPGRPASAGNALKGRVPPGDSPPGNGSGPRHINDSPFGTLPGSAEPPLTAVRPEGSEPPGFPTSGPRRRPGCSRKNRTRSHCRLGQAGSGGGGTGDSEGSGALPSLTCSLTPLGLALVLWTVLGPC
B3: 182, 186: human NgR1 mutant, listed residues mutated to alanine (protein)
chain: CPGACVCYNEPKVTTSCPQQGLQAVPVGIPAASQRIFLHGNRISHVPAASFRACRNLTILWLHSNVLARIDAAAFTGLALLEQLDLSDNAQLRSVDPATFHGLGRLHTLHLDRCGLQELGPGLFRGLAALQYLYLQDNALQALPDDTFRDLGNLTALFLAGNRISSVPERAFRGLHSLDRLLLHQNRVAHVHPHAFRDLGRLMTLYLFANNLSALPTEALAPLRALQYLRLNDNPWVCDCRARPLWAWLQKFRGSSSEVPCSLPQRLAGRDLKRLAANDLQGCAVATGPYHPIWTGRATDEEPLGLPKCCQPDAADKASVLEPGRPASAGNALKGRVPPGDSPPGNGSGPRHINDSPFGTLPGSAEPPLTAVRPEGSEPPGFPTSGPRRRPGCSRKNRTRSHCRLGQAGSGGGGTGDSEGSGALPSLTCSLTPLGLALVLWTVLGPC
B4: 232, 234: human NgR1 mutant, listed residues mutated to alanine (protein)
chain: CPGACVCYNEPKVTTSCPQQGLQAVPVGIPAASQRIFLHGNRISHVPAASFRACRNLTILWLHSNVLARIDAAAFTGLALLEQLDLSDNAQLRSVDPATFHGLGRLHTLHLDRCGLQELGPGLFRGLAALQYLYLQDNALQALPDDTFRDLGNLTHLFLHGNRISSVPERAFRGLHSLDRLLLHQNRVAHVHPHAFRDLGRLMTLALAANNLSALPTEALAPLRALQYLRLNDNPWVCDCRARPLWAWLQKFRGSSSEVPCSLPQRLAGRDLKRLAANDLQGCAVATGPYHPIWTGRATDEEPLGLPKCCQPDAADKASVLEPGRPASAGNALKGRVPPGDSPPGNGSGPRHINDSPFGTLPGSAEPPLTAVRPEGSEPPGFPTSGPRRRPGCSRKNRTRSHCRLGQAGSGGGGTGDSEGSGALPSLTCSLTPLGLALVLWTVLGPC
B5: 82, 179: human NgR1 mutant, listed residues mutated to alanine (protein)
chain: CPGACVCYNEPKVTTSCPQQGLQAVPVGIPAASQRIFLHGNRISHVPAASFRACRALTILWLHSNVLARIDAAAFTGLALLEQLDLSDNAQLRSVDPATFHGLGRLHTLHLDRCGLQELGPGLFRGLAALQYLYLQDNALQALPDDTFRDLGALTHLFLHGNRISSVPERAFRGLHSLDRLLLHQNRVAHVHPHAFRDLGRLMTLYLFANNLSALPTEALAPLRALQYLRLNDNPWVCDCRARPLWAWLQKFRGSSSEVPCSLPQRLAGRDLKRLAANDLQGCAVATGPYHPIWTGRATDEEPLGLPKCCQPDAADKASVLEPGRPASAGNALKGRVPPGDSPPGNGSGPRHINDSPFGTLPGSAEPPLTAVRPEGSEPPGFPTSGPRRRPGCSRKNRTRSHCRLGQAGSGGGGTGDSEGSGALPSLTCSLTPLGLALVLWTVLGPC
B6: D259N: human NgR1 mutant, asparagine substitution to mimic a human polymorphism (protein)
chain: CPGACVCYNEPKVTTSCPQQGLQAVPVGIPAASQRIFLHGNRISHVPAASFRACRNLTILWLHSNVLARIDAAAFTGLALLEQLDLSDNAQLRSVDPATFHGLGRLHTLHLDRCGLQELGPGLFRGLAALQYLYLQDNALQALPDDTFRDLGNLTHLFLHGNRISSVPERAFRGLHSLDRLLLHQNRVAHVHPHAFRDLGRLMTLYLFANNLSALPTEALAPLRALQYLRLNNNPWVCDCRARPLWAWLQKFRGSSSEVPCSLPQRLAGRDLKRLAANDLQGCAVATGPYHPIWTGRATDEEPLGLPKCCQPDAADKASVLEPGRPASAGNALKGRVPPGDSPPGNGSGPRHINDSPFGTLPGSAEPPLTAVRPEGSEPPGFPTSGPRRRPGCSRKNRTRSHCRLGQAGSGGGGTGDSEGSGALPSLTCSLTPLGLALVLWTVLGPC
B7: 36, 38: human NgR1 mutant, listed residues mutated to alanine (protein)
chain: CPGACVCYNAPAVTTSCPQQGLQAVPVGIPAASQRIFLHGNRISHVPAASFRACRNLTILWLHSNVLARIDAAAFTGLALLEQLDLSDNAQLRSVDPATFHGLGRLHTLHLDRCGLQELGPGLFRGLAALQYLYLQDNALQALPDDTFRDLGNLTHLFLHGNRISSVPERAFRGLHSLDRLLLHQNRVAHVHPHAFRDLGRLMTLYLFANNLSALPTEALAPLRALQYLRLNDNPWVCDCRARPLWAWLQKFRGSSSEVPCSLPQRLAGRDLKRLAANDLQGCAVATGPYHPIWTGRATDEEPLGLPKCCQPDAADKASVLEPGRPASAGNALKGRVPPGDSPPGNGSGPRHINDSPFGTLPGSAEPPLTAVRPEGSEPPGFPTSGPRRRPGCSRKNRTRSHCRLGQAGSGGGGTGDSEGSGALPSLTCSLTPLGLALVLWTVLGPC
B8: 63, 65: human NgR1 mutant, listed residues mutated to alanine (protein)
chain: CPGACVCYNEPKVTTSCPQQGLQAVPVGIPAASQRIALAGNRISHVPAASFRACRNLTILWLHSNVLARIDAAAFTGLALLEQLDLSDNAQLRSVDPATFHGLGRLHTLHLDRCGLQELGPGLFRGLAALQYLYLQDNALQALPDDTFRDLGNLTHLFLHGNRISSVPERAFRGLHSLDRLLLHQNRVAHVHPHAFRDLGRLMTLYLFANNLSALPTEALAPLRALQYLRLNDNPWVCDCRARPLWAWLQKFRGSSSEVPCSLPQRLAGRDLKRLAANDLQGCAVATGPYHPIWTGRATDEEPLGLPKCCQPDAADKASVLEPGRPASAGNALKGRVPPGDSPPGNGSGPRHINDSPFGTLPGSAEPPLTAVRPEGSEPPGFPTSGPRRRPGCSRKNRTRSHCRLGQAGSGGGGTGDSEGSGALPSLTCSLTPLGLALVLWTVLGPC

test system: NgR ligands; assay: Binding of alanine substituted NgR mutants to NgR ligands, summary categories; conditions: AP-Nogo66, AP-B4C, AP-B4C66, AP-Lingo-1, AP-OMgp and AP-MAG; compared to wild type NgR
From the text: To better define how multiple ligands bind to the NgR protein, we examined a series of Ala-substituted NgR for ligand binding activity. NgR mutagenesis was done using the Quick Change Multisite Directed Mutagenesis Kit (Stratagene catalog #200514). Human NgR1 was used as a template. Ala substitutions were generated for each of the charged residues predicted to be solvent accessible at the surface of the ligand binding domain of NgR (Barton, W. A., et al., Embo J. 22:3291-3302 (2003); He, X. L., et al., Neuron 38:177-185 (2003)). We generated mutants in which 1-8 surface residues localized within 5 A of one another were Ala-substituted. Because of the coiling nature of the LRR structure, as residues juxtaposed on the protein surface are commonly separated by approximately 25 residues in the primary structure. In addition to mutations in specific charged surface patches, other mutations were targeted to glycosylation sites and to regions predicted to be involved in ligand binding based on the NgR structure (Barton, W. A., et al., Embo J. 22:3291-3302 (2003); He, X. L., et al., Neuron 38:177-185 (2003)). In addition, a variant corresponding to a human polymorphism was examined (D259N). None of the mutations altered the Leu residues that define the LRR structure itself or the Cys residues critical in the amino and carboxyl terminal capping domains. The vast majority of such Ala surface substitution mutants were expressed as immunoreactive polypeptides with a molecular weight and an expression level indistinguishable from wild type NgR (FIG. 4C and data not shown).
This collection of 74 individual NgR mutants was interrogated for AP-Nogo-66, AP-Amino-Nogo-B4C, AP-MAG, AP-OMgp, and AP-Lingo-1 binding. AP-Nogo66, AP-MAG, AP-OMGP and AP-Lingo-1 constructs are described elsewhere (Fournier, A. E., et al., Nature 409:341-346 (2001); Liu, B. P., et al., Science 297:1190-1193 (2002); Mi, S., et al., Nat. Neurosci. 7:221-228 (2004); Wang, K. C., et al., Nature 417:941-944 (2002b)). The properties of the NgR mutants fell into one of three major categories (Table II and FIG. 5). A number of Ala substituted NgR polypeptides bound all of the ligands at wild type levels. […] In addition, a significant extent of the concave surface is dispensable for ligand binding.
Alanine substituted NgR mutants were tested for their binding to AP-Nogo66, AP-B4C, AP-B4C66, AP-Lingo-1, AP-OMgp and AP-MAG and they fall into three categories: (1) Mutants that lose binding to all NgR ligands. (2) Mutants that still maintain binding to all NgR ligands. […] The D259N mutant is an asparagine substitution to mimic a human polymorphism.

| Molecule | ligand binding category of NgR mutant (Table II) |
| --- | --- |
| B1 | No binding |
| B2 | No binding |
| B3 | No binding |
| B4 | No binding |
| B5 | No binding |
| B6 | Binding to all ligands |
| B7 | Binding to all ligands |
| B8 | Binding to all ligands |
